In US20260116920A1 (PEPTIDREAM, published 2026):
Starred links: 1 amine or outer side, 2 acyl side, 3 side chain; linkers in the order of their positions; H or OH if unused. Non-standard residues stand in square brackets, D forms with d. Primed or numbered codes have the meaning given here. No end group written: not given here. E(PEG8Me) = (S)-30-amino-27-oxo-2,5,8,11,14,17,20,23-octaoxa-26-azahentriacontane-31-oic acid, COCCOCCOCCOCCOCCOCCOCCOCCNC(=O)CC[C@H](N[*:1])C(=O)[*:2]; Phe(4-OMe)(3) = (S)-2-amino-3-(4-methoxyphenyl)propanoic acid (source code F4OMe), COc1ccc(C[C@H](N[*:1])C(=O)[*:2])cc1; F4aao = (S)-2-amino-3-(4-(carboxymethoxy)phenyl)propanoic acid, O=C([C@H](Cc1ccc(OCC(=O)[*:3])cc1)N[*:1])[*:2]; Trp(1-CH2CO) = O=C([C@H](Cc1cn(CC(=O)[*:3])c2ccccc12)N[*:1])[*:2]; Phe(3-COOH) = N[C@@H](Cc1cccc(C(=O)O)c1)C(=O)O; Trp(7-aza) = N[C@@H](Cc1c[nH]c2ncccc12)C(=O)O; NMePhe(3-Cl) = CN[C@@H](Cc1cccc(Cl)c1)C(=O)O; 3Pal(6-NH2) = Nc1ccc(C[C@H](N)C(=O)O)cn1; NMe3Pal = CN[C@@H](Cc1cccnc1)C(=O)O; NMe4Pal = CN[C@@H](Cc1ccncc1)C(=O)O; NMeY = CN[C@@H](Cc1ccc(O)cc1)C(=O)O; 3Pal = N[C@@H](Cc1cccnc1)C(=O)O; 4Pal = N[C@@H](Cc1ccncc1)C(=O)O

Molecular target: T1, human transferrin receptor (hTfR) (human, UniProt P02786 89-760)
T1 construct: used as 0.5 uM hTfR dimer solution, immobilised on an NTA sensor chip (Ni capture plus EDC/NHS coupling); also called human TfR; TfR1
Assay: SPR; B = KD 1-100 nM
Protocol: NTA sensor chip (Global Life Sciences Technologies Japan K.K.) was inserted into BiacoreT200 (Global Life Sciences Technologies Japan K.K.), then the priming operation was performed three times by using running buffer containing: 10 mM HEPES pH 8.0 (Nacalai Tesque, Inc.), 150 mM NaCl (Nacalai Tesque, Inc.), 0.05% Tween 20 (Nacalai Tesque, Inc.), 0.1% BSA (SIGMA-ALDRICH) and 1.0% DMSO (FUJIFILM Wako Pure Chemical Corporation), and equilibrated at a flow rate of 30 μL/min. 350 mM EDTA solution was reacted at a flow rate of 10 μL/min for 60 seconds, 0.5 mM […] solution (Kishida Chemical Co., Ltd.) was reacted at a flow rate of 10 μL/min for 60 seconds, and then the NTA sensor chip was washed with 3 mM EDTA solution (Nacalai Tesque, Inc.) at a flow rate of 10 μL/min for 60 seconds. After mixing 50 μL each of 60 mM EDC solution (Global Life Science Technologies Japan K.K.) and 650 mM NHS solution (Global Life Science Technologies Japan K.K.), the reaction was carried out at a flow rate of 10 μL/min for 420 seconds. 150 μL of 0.5 μM hTfR dimer solution was prepared by dilution with running buffer and reacted at a flow rate of 10 μL/min for 300 seconds to immobilize hTfR on the NTA sensor chip. For the human transferrin receptor (hTfR), recombinant hTfR described in Example 2 of WO2018/124121 was used. After immobilization, capping was performed by reacting with 1.0 M ethanolamine solution (Global Life Sciences Technologies Japan K.K.) at a flow rate of 10 μL/min for 420 seconds. Peptide lysate prepared in DMSO solution to 10 mM was diluted with running buffer to be a final concentration of 10 μM peptide lysate, then peptide solutions of 100 nM, 50 nM, 25 nM, 10 nM, and 5 nM were prepared. Using the above samples, the kinetics of the peptide against hTfR was obtained by SPR measurement.
The kinetic evaluation model was single-cycle kinetics, and curve fitting was performed using Biacore T200 Evaluation Software Version 3.0 (Global Life Science Technologies Japan K.K.). The binding of the peptide to hTfR was evaluated by performing curve fitting on the obtained sensorgram by least squares method and obtaining the KD value.

T1 sequence (P02786 89-760 limits assumed): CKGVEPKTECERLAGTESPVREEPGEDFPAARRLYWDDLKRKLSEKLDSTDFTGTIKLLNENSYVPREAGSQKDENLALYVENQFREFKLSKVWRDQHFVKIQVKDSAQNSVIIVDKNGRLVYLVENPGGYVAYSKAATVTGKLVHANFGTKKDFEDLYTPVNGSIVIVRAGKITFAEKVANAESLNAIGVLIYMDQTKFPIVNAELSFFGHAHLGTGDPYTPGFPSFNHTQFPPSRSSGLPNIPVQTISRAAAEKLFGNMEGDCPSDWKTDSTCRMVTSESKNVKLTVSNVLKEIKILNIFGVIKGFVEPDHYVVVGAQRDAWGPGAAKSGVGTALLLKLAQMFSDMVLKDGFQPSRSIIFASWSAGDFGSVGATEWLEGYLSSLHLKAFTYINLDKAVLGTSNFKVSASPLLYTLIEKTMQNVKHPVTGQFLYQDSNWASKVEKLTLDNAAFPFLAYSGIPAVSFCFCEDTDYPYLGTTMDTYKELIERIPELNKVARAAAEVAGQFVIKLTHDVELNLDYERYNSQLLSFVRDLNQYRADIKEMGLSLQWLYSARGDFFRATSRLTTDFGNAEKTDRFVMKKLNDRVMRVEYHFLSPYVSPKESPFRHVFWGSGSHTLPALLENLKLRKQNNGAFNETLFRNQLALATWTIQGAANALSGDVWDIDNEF

Row | Binder | KD [nM]
1 | Ac-AV[NMe4Pal]VWN[3Pal(6-NH2)][Phe(4-OMe)(3)]IIRRF[NMeY]C (thioether (positions not given here); not fully specified (C-terminus, bridges)) [894_0323] | 1 to 100
2 | Ac-AV[NMePhe(3-Cl)]V[Trp(7-aza)]NY[Phe(4-OMe)(3)]IIRR[4Pal][NMeY]C (thioether (positions not given here); not fully specified (C-terminus, bridges)) [894_0324] | 1 to 100
3 | Ac-AV[NMePhe(3-Cl)]V[Trp(1-CH2CO)]NY[3Pal]IIRR[Phe(3-COOH)][NMeY]C (thioether (positions not given here); not fully specified (C-terminus, bridges)) [894_0341] | 1 to 100
4 | Ac-AV[NMePhe(3-Cl)]V[Trp(1-CH2CO)]NY[F4aao]IIRR[4Pal][NMeY]C (thioether (positions not given here); not fully specified (C-terminus, bridges)) [894_0343] | 1 to 100
5 | Ac-AV[NMePhe(3-Cl)]V[Trp(1-CH2CO)]NY[Phe(4-OMe)(3)]IIR[E(PEG8Me)][Phe(3-COOH)][NMeY]C (thioether (positions not given here); not fully specified (C-terminus, bridges)) [894_0344] | 1 to 100
6 | Ac-AV[NMePhe(3-Cl)]V[Trp(1-CH2CO)]NY[Phe(4-OMe)(3)]IIR[E(PEG8Me)][4Pal][NMeY]C (thioether (positions not given here); not fully specified (C-terminus, bridges)) [894_0345] | 1 to 100
7 | Ac-AV[NMePhe(3-Cl)]V[Trp(1-CH2CO)]N[3Pal(6-NH2)][3Pal]IIRR[Phe(3-COOH)][NMeY]C (thioether (positions not given here); not fully specified (C-terminus, bridges)) [894_0347] | 1 to 100

Next, values leading:

Row | KD [nM] | Binder
8 | 1 to 100 | Ac-AV[NMePhe(3-Cl)]VWNY[Phe(4-OMe)(3)]IIRR[4Pal][NMe3Pal]C (thioether (positions not given here); not fully specified (C-terminus, bridges)) [894_0325]
9 | 1 to 100 | Ac-AV[NMePhe(3-Cl)]V[Trp(1-CH2CO)]NY[Phe(4-OMe)(3)]IIR[E(PEG8Me)]F[NMeY]C (thioether (positions not given here); not fully specified (C-terminus, bridges)) [894_0334]
10 | 1 to 100 | Ac-AV[NMePhe(3-Cl)]V[Trp(1-CH2CO)]N[3Pal(6-NH2)][F4aao]IIRRF[NMeY]C (thioether (positions not given here); not fully specified (C-terminus, bridges)) [894_0337]
11 | 1 to 100 | Ac-AV[NMePhe(3-Cl)]V[Trp(1-CH2CO)]N[3Pal(6-NH2)][Phe(4-OMe)(3)]IIRR[Phe(3-COOH)][NMeY]C (thioether (positions not given here); not fully specified (C-terminus, bridges)) [894_0339]
12 | 1 to 100 | Ac-AV[NMePhe(3-Cl)]V[Trp(1-CH2CO)]NY[3Pal]IIR[E(PEG8Me)]F[NMeY]C (thioether (positions not given here); not fully specified (C-terminus, bridges)) [894_0340]
